# Experimental data taken from publication PMC6735613.
# Target: recombinant human MMP-9 catalytic domain (residues 112-445) (human) (UniProt P14780)
# UniProt P14780, sequence (P14780 112-445): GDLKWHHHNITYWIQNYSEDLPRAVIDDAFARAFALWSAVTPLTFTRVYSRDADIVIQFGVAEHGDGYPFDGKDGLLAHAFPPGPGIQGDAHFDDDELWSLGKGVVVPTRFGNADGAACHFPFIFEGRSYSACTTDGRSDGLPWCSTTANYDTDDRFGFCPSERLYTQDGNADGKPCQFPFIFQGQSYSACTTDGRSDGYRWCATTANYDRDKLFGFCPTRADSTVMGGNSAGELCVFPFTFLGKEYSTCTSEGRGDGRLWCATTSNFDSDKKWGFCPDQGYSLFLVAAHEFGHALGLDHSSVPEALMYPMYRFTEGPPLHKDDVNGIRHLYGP
binder,measurement,value
"GRMSDLSMIGHPI (5-FAM on the N-terminus, QXL quencher on the C-terminus (5-FAM-GRMSDLSMIGHPI-QXL)) [VCAN p.1335-1347 FRET substrate (5-FAM-…-QXL)]",Kcat/Km of hydrolysis of the FRET-tagged peptide by the MMP-9 catalytic domain,8650 M⁻¹ s⁻¹
